# Assay results reported in patent publication US6569841B1, “Ion exchange tumor targeting (IETT)” (MAP Medical Technologies OY, priority 1998, dated 2003).
# System: bladder tumor tissue (epidermal growth factor positive superficial transitional cell bladder carcinoma)
# Test: Radioactive uptake in bladder tumor vs normal bladder tissue after instillation in the bladder of patients (ttn ratio)
# Conditions: 200 mL of 0.25 μg/mL in saline instilled in the bladder for 30 minutes, washed out, mean values
# Method: Nine patients having epidermal growth factor positive superficial transitional cell bladder carcinoma were studied.
# 200 mL of the polymers, of the concentration 0.25 μg/mL in saline, were instilled through an urethral catether and kept in the bladder for 30 minutes and were then carefully washed out with approximately 400 mL saline. The patients were then operated on and samples were taken from normal bladder tissue and bladder tumor tissue, respectively. The samples were weighed and counted in gamma counter and the radioactive uptake was calculated as cpm/g tissue. The target to non-target (ttn) ratio was calculated.
substance,measurement,value
Tc-99m-lysine dextran,"radioactive uptake, ttn (target to non-target ratio, tumor vs normal bladder tissue, cpm/g)",highest target to non-target ratio
